Data on 1 substance can be found in US7252997.

The target in assay [1] is AAV2 capsid mutant I-587 (P1 peptide inserted after amino acid 587, VP1 numbering) (adeno-associated virus serotype 2 (AAV2)) (UniProt P03135). Kind of assay: capsid ELISA with A20 MAb on purified virus stock. (In an ELISA, binding on a coated surface is turned into a signal by an enzyme label.)
Assay [2] addresses Wild-type AAV2 capsid (adeno-associated virus serotype 2 (AAV2)) (UniProt P03135). Kind of assay: capsid ELISA with A20 MAb on purified virus stock.

As for A20 monoclonal antibody, the results for the titer with A20 capsid ELISA in assay [1] and in assay [2] were 3e+12 particles/ml and 6e+12 particles/ml, respectively.
